# Results taken from patent CN114773460A.
# B1: 纳米抗体Rot1 (nanobody Rot1, fusion protein with C-terminal histidine tag and human influenza hemaggluti (VHH)
# VHH: QVQLQESGGGLVQAGGSLRLSCTASGYRFSNLAVGWFRQAPGQEREAVAVIFVGGITYYADSVKGRFTISRDNAKNTVTLQMNNLKPEDTAIYYCAAYVHMYCASQTITRYDYWGQGTQVTVSS
# Target: 轮状病毒重组蛋白VP8 (recombinant rotavirus VP8, part of the spike protein VP4) (轮状病毒 (rotavirus; strain not stated))
# Experiment: ELISA, antigen coated at 10 μg/mL, Rot1 in 2-fold dilutions from 10 μg/mL (16 points), anti-His detection, OD450
binder,measurement,value
B1,EC50,0.195 µg/mL
